According to publication PMC9534812, “Hetero-pentamerization determines mobility and conductance of Glycine receptor α3 splice variants” (Cellular and Molecular Life Sciences, 2022):

How the values were obtained:
[1] = target: the molecule itself; test: molecular brightness from raster image correlation spectroscopy (RICS); live HEK293 cells, confocal, 37 °C, bottom membrane; clusters masked out by intensity thresholding; brightness of eGFP compared with eGFP5 and Lyn-eGFP references
[2] = target: GlyR-α3K-mCherry (glycine receptor α3 subunit, short splice variant K, N-terminally tagged with mCherry) (mouse); test: subunit counting by stepwise photobleaching (TIRF microscopy); fixed HEK293 cells with low copy number expression (50 ng GlyR-α3L-eGFP, 0-500 ng GlyR-α3K-mCherry); eGFP bleaching steps per diffraction-limited spot, step histogram fitted with binomial models; room temperature

B1: GlyR-α3L-eGFP (glycine receptor α3 subunit, long splice variant L, N-terminally tagged with eGFP) (receptor, mouse, UniProt Q91XP5 34-464, looked up)
chain: ARSRSAPMSPSDFLDKLMGRTSGYDARIRPNFKGPPVNVTCNIFINSFGSIAETTMDYRVNIFLRQKWNDPRLAYSEYPDDSLDLDPSMLDSIWKPDLFFANEKGANFHEVTTDNKLLRIFKNGNVLYSIRLTLTLSCPMDLKNFPMDVQTCIMQLESFGYTMNDLIFEWQDEAPVQVAEGLTLPQFLLKEEKDLRYCTKHYNTGKFTCIEVRFHLERQMGYYLIQMYIPSLLIVILSWVSFWINMDAAPARVALGITTVLTMTTQSSGSRASLPKVSYVKAIDIWMAVCLLFVFSALLEYAAVNFVSRQHKELLRFRRKRKNKTEAFALEKFYRFSDTDDEVRESRFSFTAYGMGPCLQAKDGVVPKGPNHAVQVMPKSPDEMRKVFIDRAKKIDTISRACFPLAFLIFNIFYWVIYKILRHEDIHQQQD
notes: Glycine receptor subunit alpha-3, mouse, splice variant L (464 residues); The receptor assembles as a pentamer; the molecule here is the subunit; also called L variant; GlyR-α3L-FP; source: HEK293, transiently transfected (calcium phosphate; truncated CMV promoter), in the membrane of live or fixed cells; not shown: eGFP, N-terminal, kept
[1]
  stoichiometry N: 5
[2]
  heteropentameric fraction (2nd order binomial fit): 23%
  heteropentameric fraction (3rd order binomial fit): 36%
  heteropentameric fraction (4th order binomial fit): 67%
